Measured values taken from paper PMC8340551 (The Journal of Cell Biology, 2021).

Target: T1, FHL2-Flag (UniProt Q14192 1-279)
T1 sequence (looked up): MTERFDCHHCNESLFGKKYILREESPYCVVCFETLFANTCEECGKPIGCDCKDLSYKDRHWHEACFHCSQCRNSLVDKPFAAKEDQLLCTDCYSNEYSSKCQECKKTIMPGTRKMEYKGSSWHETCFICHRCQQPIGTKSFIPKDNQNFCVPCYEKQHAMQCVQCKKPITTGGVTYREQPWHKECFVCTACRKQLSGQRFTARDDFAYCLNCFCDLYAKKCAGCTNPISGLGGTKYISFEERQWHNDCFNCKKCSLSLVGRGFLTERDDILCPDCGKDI
Test: co-IP

B1: Myc-TRAK1 (Myc-TRAK1^WT) (natural protein, UniProt Q9UPV9 1-953, looked up)
chain: MALVFQFGQPVRAQPLPGLCHGKLIRTNACDVCNSTDLPEVEIISLLEEQLPHYKLRADTIYGYDHDDWLHTPLISPDANIDLTTEQIEETLKYFLLCAERVGQMTKTYNDIDAVTRLLEEKERDLELAARIGQSLLKKNKTLTERNELLEEQVEHIREEVSQLRHELSMKDELLQFYTSAAEESEPESVCSTPLKRNESSSSVQNYFHLDSLQKKLKDLEEENVVLRSEASQLKTETITYEEKEQQLVNDCVKELRDANVQIASISEELAKKTEDAARQQEEITHLLSQIVDLQKKAKACAVENEELVQHLGAAKDAQRQLTAELRELEDKYAECMEMLHEAQEELKNLRNKTMPNTTSRRYHSLGLFPMDSLAAEIEGTMRKELQLEEAESPDITHQKRVFETVRNINQVVKQRSLTPSPMNIPGSNQSSAMNSLLSSCVSTPRSSFYGSDIGNVVLDNKTNSIILETEAADLGNDERSKKPGTPGTPGSHDLETALRRLSLRRENYLSERRFFEEEQERKLQELAEKGELRSGSLTPTESIMSLGTHSRFSEFTGFSGMSFSSRSYLPEKLQIVKPLEGSATLHHWQQLAQPHLGGILDPRPGVVTKGFRTLDVDLDEVYCLNDFEEDDTGDHISLPRLATSTPVQHPETSAHHPGKCMSQTNSTFTFTTCRILHPSDELTRVTPSLNSAPTPACGSTSHLKSTPVATPCTPRRLSLAESFTNTRESTTTMSTSLGLVWLLKERGISAAVYDPQSWDRAGRGSLLHSYTPKMAVIPSTPPNSPMQTPTSSPPSFEFKCTSPPYDNFLASKPASSILREVREKNVRSSESQTDVSVSNLNLVDKVRRFGVAKVVNSGRAHVPTLTEEQGPLLCGPPGPAPALVPRGLVPEGLPLRCPTVTSAIGGLQLNSGIRRNRSFPTMVGSSMQMKAPVTLTSGILMGAKLSKQTSLR
modifications: O-GlcNAc on serine and threonine residues (sites not given), more with co-expressed OGT, less with co-expressed OGA
fold more co-precipitated with OGT overexpression than with OGA overexpression: 5 fold
